T1: Siglec-10 (UniProt Q96LC7 17-546, limits assumed)
T1 sequence (looked up): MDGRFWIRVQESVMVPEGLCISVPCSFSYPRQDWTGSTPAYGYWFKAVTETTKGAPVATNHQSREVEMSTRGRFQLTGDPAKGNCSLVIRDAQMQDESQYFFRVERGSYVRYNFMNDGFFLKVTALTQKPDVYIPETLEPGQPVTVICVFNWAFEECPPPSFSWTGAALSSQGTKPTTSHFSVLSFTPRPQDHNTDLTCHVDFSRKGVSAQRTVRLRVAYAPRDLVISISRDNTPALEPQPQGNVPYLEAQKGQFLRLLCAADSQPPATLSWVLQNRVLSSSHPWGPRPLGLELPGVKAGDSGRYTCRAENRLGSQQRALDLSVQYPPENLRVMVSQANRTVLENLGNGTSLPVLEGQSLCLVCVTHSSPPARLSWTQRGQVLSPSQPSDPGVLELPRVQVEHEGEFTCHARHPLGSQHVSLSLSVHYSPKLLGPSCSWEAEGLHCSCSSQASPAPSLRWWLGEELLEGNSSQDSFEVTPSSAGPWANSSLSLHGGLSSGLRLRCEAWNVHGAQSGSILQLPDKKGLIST


How the values were obtained:
[1] = target: T2, recombinant Siglec-9 (SinoBiological, 30109-H03H) (human, UniProt Q9Y336 18-348); assay: ELISA on coated ectodomains
T2 construct: also called ectodomain of Siglec-9; recombinant human Siglec-9 protein
Experimental: (§1) Next, the binding of anti-Siglec-9 monoclonal antibodies ED2D5, C1B613, BC3G5, and DH1A11 to the ectodomains of Siglec-9, Siglec-7, and a control was assessed using ELISA. An anti-Siglec-7 antibody control and isotype control were utilized. […] Antibody clones huCB6B3, mAbA, 68D4, and Tf73 also produced similar EC50 values.
(§2) To perform the ELISA experiments, 96-well plates were coated with recombinant Siglec-9 (SinoBiological, 30109-H03H) (100 μL) at 2 μg/mL in carbonate/bicarbonate buffer pH 9.6 overnight at 4° C., and washed with 250 μL of PBST (PBS, 0.1% Tween-20). Plates were blocked with blocking buffer (3% BSA in PBS) for 1 hour at room temperature, washed, and 100 μL of serially diluted anti-Siglec-9 antibodies-test antibodies, benchmarks, or control-starting at 66.64 nM (4-fold serial dilutions in PBST with 1% w/v non-fat milk), were added for 2 hours at RT. The plates were washed and incubated at room temperature with an anti-mouse IgG HRP detection antibody (1:5000, 1-hour, Anti-mouse IgG-HRP), followed by three washes of 250 μL of PBST, and two more with 400 μL of PBS, before the addition of 100 μL of TMB (Thermo Scientific) for 2-6 minutes. The reaction was stopped with 50 μL of Stop Solution (Thermo Scientific). The OD was measured at 450 nm in a multimode plate reader (Victor Nivo, PerkinElmer). OD values were plotted against antibody concentration, and data were analyzed using GraphPad Prism software.

ectodomain of Siglec-7 = target: T3, ectodomain of Siglec-7 (UniProt Q9Y286 19-353, limits assumed); assay: ELISA on coated ectodomains
T3 construct: extracellular domain
Experimental: as §1, §2

[2] = target: T4, human Siglec-9 protein (recombinant; construct not stated) (human, UniProt Q9Y336 18-344, limits assumed); assay: ELISA on recombinant Siglec-9
T4 construct: also called recombinant Siglec-9
Experimental: as §1
as §2, with “The reaction was stopped with 50 μL of Stop Solution (Thermo Scientific).” left out

Siglec-3 = Siglec-3 (UniProt P20138 18-259, limits assumed); assay: BLI, antibody in Fab format
Experimental: (§3) BLI experiments were performed to assess binding of the generated anti-Siglec-9 antibodies to Siglec family members Siglec-3, Siglec-6, Siglec-7, Siglec-8, Siglec-9, and Siglec-10. The antibodies were tested in Fab format at 250 nM.

Siglec-6 = Siglec-6 (UniProt O43699 27-347, limits assumed); assay: BLI, antibody in Fab format
Experimental: as §3

Siglec-7 (BLI) = Siglec-7 (BLI) (UniProt Q9Y286 19-353, limits assumed); assay: BLI, antibody in Fab format
Experimental: as §3

Siglec-8 = Siglec-8 (UniProt Q9NYZ4 17-363, limits assumed); assay: BLI, antibody in Fab format
Experimental: as §3

Siglec-10 = target: T1, Siglec-10; assay: BLI, antibody in Fab format
Experimental: as §3

[3] = target: T4, human Siglec-9 protein (recombinant; …); assay: ELISA, human Siglec-9 protein coated at 2 µg/mL, antibody titrated 0.4 pM to 400 nM
Experimental: The binding of the different IgG CB6B3 antibodies was analyzed via ELISA using human Siglec-9 protein as immobilized antigen (2 μg/mL). The different antibodies were titrated from 0.4 pM to 400 nM (FIG. 9). Human Siglec-9 protein was diluted in PBS pH 7.4 and coated overnight at 4° C. Remaining binding sites were blocked with PBS, 2% skimmed milk power (MPBS) for 2 hours. Bound murine IgG CB6B3 antibody was detected with an HRP-conjugated anti-mouse Fc secondary antibody (Sigma Aldrich A554; 1:5,000 dilution). All antibodies were diluted in MPBS. Incubation times were 1 hour each. TMB/H2O2 was used as substrate. […] Thus, the humanised antibodies retained antigen specificity and bound with similar potency to purified antigen in ELISA.

[4] = target: T4, human Siglec-9 protein (recombinant; …); assay: BLI, antibody in Fab format at 250 nM
Experimental: as §3

T4 sequence (Q9Y336 18-344 limits assumed): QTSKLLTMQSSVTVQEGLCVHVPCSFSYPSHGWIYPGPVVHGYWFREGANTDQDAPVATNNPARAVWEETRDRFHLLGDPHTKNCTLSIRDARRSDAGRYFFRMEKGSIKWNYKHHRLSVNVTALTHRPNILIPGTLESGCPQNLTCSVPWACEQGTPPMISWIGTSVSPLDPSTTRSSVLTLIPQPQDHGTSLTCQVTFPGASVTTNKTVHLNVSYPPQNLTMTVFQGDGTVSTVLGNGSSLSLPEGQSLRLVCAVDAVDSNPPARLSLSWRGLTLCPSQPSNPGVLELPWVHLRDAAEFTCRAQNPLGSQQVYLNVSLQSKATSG
Siglec-8, sequence (Q9NYZ4 17-363 limits assumed): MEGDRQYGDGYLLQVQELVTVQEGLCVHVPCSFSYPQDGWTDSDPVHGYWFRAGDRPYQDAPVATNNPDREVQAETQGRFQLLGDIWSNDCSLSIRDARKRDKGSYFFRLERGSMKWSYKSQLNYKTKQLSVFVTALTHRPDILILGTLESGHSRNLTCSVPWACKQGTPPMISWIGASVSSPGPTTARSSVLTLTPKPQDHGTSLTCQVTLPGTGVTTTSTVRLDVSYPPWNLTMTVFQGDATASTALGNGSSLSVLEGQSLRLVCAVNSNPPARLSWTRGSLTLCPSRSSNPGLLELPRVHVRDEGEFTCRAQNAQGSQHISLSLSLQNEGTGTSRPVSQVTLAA
T2 sequence (Q9Y336 18-348 limits assumed): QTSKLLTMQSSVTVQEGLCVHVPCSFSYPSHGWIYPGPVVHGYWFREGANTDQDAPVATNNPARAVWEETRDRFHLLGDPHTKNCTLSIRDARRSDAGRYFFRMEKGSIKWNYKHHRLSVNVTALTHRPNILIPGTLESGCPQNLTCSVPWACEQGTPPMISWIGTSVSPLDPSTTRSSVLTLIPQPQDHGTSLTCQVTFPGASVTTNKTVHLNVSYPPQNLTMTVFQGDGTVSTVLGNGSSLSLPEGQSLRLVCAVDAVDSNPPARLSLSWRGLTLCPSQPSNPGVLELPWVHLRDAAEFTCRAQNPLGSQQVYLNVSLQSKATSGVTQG
Siglec-6, sequence (O43699 27-347 limits assumed): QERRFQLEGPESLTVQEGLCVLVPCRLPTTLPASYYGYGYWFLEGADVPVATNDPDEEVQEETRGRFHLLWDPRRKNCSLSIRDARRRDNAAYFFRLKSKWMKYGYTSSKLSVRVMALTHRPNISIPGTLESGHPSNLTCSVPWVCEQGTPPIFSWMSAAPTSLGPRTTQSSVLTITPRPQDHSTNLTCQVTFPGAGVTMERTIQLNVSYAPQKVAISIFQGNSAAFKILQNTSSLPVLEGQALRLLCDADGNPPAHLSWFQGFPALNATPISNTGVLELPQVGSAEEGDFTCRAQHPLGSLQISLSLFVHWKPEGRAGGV
Siglec-3, sequence (P20138 18-259 limits assumed): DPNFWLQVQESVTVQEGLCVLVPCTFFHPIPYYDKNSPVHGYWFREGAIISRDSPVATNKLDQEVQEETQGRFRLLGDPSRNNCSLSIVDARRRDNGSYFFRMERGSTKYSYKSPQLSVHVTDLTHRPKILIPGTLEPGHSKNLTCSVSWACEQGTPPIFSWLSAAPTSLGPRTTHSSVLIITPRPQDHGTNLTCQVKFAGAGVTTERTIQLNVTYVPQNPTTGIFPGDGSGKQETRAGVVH
T3 sequence (Q9Y286 19-353 limits assumed): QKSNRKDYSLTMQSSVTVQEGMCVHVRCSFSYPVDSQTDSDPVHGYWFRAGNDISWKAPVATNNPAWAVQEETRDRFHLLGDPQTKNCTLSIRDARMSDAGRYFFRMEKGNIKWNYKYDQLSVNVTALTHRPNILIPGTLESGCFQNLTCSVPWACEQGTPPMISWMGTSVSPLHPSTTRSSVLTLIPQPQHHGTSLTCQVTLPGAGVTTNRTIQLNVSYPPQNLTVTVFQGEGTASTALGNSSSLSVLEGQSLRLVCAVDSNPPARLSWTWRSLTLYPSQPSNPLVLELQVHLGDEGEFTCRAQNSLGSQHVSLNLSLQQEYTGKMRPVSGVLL
Siglec-7 (BLI), sequence (Q9Y286 19-353 limits assumed): as above

Binder	binding result [1]	binding result (ectodomain of Siglec-7)	binding result (Siglec-3)	binding result (Siglec-6)	binding result (Siglec-7 (BLI))	binding result (Siglec-8)	binding result (Siglec-10)	also measured
anti-Siglec-9 monoclonal antibody clone CB6B3 (parental mouse antibody) (antibody, V domains shown, Mouse hybridoma IgG; also called moIgG CB6B3; mouse IgG CB6B3) VH: EVQLQQSGAEVVRPGALVKLSCKAAGFNIKDYFIHWVKQRPEQGLEWIGLIDPENDNTMYDPRFQVKASLTADTSSNTAYLQLSRLTSEDAAVYYCASTVVARSFDYWGQGTTLTVSS VL: SIVMTQTPKFLLVSAGDRVTITCKASQSVSNDVAWYQQKSGQSPKLLIYYTSNRYTGVPDRFTGSGYGTDFTFTISTVQAEDLAVYFCQQDFRSPFTFGAGTKLELK	binds	no binding						binding result [2]: binds
CB6B3 in Fab format (Fab, V domains shown, Tested in Fab format in BLI; printed as 'C1B613', read as CB6B3; also called C1B613) VH: EVQLQQSGAEVVRPGALVKLSCKAAGFNIKDYFIHWVKQRPEQGLEWIGLIDPENDNTMYDPRFQVKASLTADTSSNTAYLQLSRLTSEDAAVYYCASTVVARSFDYWGQGTTLTVSS VL: SIVMTQTPKFLLVSAGDRVTITCKASQSVSNDVAWYQQKSGQSPKLLIYYTSNRYTGVPDRFTGSGYGTDFTFTISTVQAEDLAVYFCQQDFRSPFTFGAGTKLELK			no binding (tested: 250 nM)	no binding (tested: 250 nM)	no binding (tested: 250 nM)	no binding (tested: 250 nM)	no binding (tested: 250 nM)	
chimeric IgG1 CB6B3 (cIgG CB6B3) (antibody, V domains shown, Chimeric IgG1 of CB6B3 made in HEK293-6E cells; also called cIgG CB6Bb) VH: EVQLQQSGAEVVRPGALVKLSCKAAGFNIKDYFIHWVKQRPEQGLEWIGLIDPENDNTMYDPRFQVKASLTADTSSNTAYLQLSRLTSEDAAVYYCASTVVARSFDYWGQGTTLTVSS VL: SIVMTQTPKFLLVSAGDRVTITCKASQSVSNDVAWYQQKSGQSPKLLIYYTSNRYTGVPDRFTGSGYGTDFTFTISTVQAEDLAVYFCQQDFRSPFTFGAGTKLELK								binding result [3]: binds
ED2D5 in Fab format (Fab, V domains shown, Tested in Fab format in BLI) VH: EVQLVESGGGLVKPGGSLKLSCAASGFTFSDYYMYWVRQTPEKRLEWVATISDGGSDTYYPDNMKGRFTISRDNAKNNLYLQMSSLKSEDTAMYYCTRDPDYDDGRFAYWGQGTLVTVSA VL: DIVMTQSHKFMSTSVGDRVSITCKASQDVGTVVAWYQQKSGQSPKLLIYWSSTRHTGVPDRFTGSGSGTDFTLTISNVQSEDLADYFCQQYIDYPLSFGAGTKLELK			no binding (tested: 250 nM)	no binding (tested: 250 nM)	no binding (tested: 250 nM)	no binding (tested: 250 nM)	no binding (tested: 250 nM)	binding result [4]: binds
anti-Siglec-9 monoclonal antibody clone ED2D5 (antibody, V domains shown, Mouse hybridoma monoclonal antibody) VH: EVQLVESGGGLVKPGGSLKLSCAASGFTFSDYYMYWVRQTPEKRLEWVATISDGGSDTYYPDNMKGRFTISRDNAKNNLYLQMSSLKSEDTAMYYCTRDPDYDDGRFAYWGQGTLVTVSA VL: DIVMTQSHKFMSTSVGDRVSITCKASQDVGTVVAWYQQKSGQSPKLLIYWSSTRHTGVPDRFTGSGSGTDFTLTISNVQSEDLADYFCQQYIDYPLSFGAGTKLELK	binds	no binding						

Source: patent US20260022170A1 (ADAPTAM THERAPEUTICS S L, published 2026)
